Patent US20250215104A1

Target: cell surface human uPAR (huPAR) (human) (UniProt Q03405)
Assay: cell-based or functional assay

Sequence of cell surface human uPAR (huPAR) (human) (Q03405 23-305): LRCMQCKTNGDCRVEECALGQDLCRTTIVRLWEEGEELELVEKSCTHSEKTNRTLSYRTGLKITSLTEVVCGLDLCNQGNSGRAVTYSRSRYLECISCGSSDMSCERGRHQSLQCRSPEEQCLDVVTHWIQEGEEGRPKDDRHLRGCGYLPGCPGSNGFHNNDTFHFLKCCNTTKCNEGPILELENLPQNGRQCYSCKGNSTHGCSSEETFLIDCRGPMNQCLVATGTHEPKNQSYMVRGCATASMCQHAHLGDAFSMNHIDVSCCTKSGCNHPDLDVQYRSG

- cellular endocytosis: mean cellular fluorescent signal (FITC-conjugated antibody, 10 µg/mL, 1 hr, undifferentiated human podocytes): 100 RFU
Substance: hIgG control antibody
